In article PMC6889417, “Derepression of LOXL4 inhibits liver cancer growth by reactivating compromised p53” (Cell Death and Differentiation, 2019):

Biological target: wild-type p53, endogenous (human (endogenous in SK-Hep1, HepG2), UniProt P04637 1-393)
Test: cell-based or functional assay

Chain of wild-type p53, endogenous (P04637 whole entry): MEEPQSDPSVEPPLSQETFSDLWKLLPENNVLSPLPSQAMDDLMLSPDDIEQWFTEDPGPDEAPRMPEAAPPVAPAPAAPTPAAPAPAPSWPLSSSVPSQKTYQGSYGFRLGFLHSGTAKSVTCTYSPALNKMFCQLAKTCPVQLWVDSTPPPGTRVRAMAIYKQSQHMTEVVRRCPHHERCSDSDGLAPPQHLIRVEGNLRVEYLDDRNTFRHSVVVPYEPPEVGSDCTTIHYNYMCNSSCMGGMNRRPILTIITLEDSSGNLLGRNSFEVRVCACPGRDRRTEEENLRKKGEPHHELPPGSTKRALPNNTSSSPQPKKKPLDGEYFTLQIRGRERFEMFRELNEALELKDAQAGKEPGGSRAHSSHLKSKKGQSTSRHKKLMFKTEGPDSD

expression of the p53 target genes PIG3 and BAX (quantitative real time PCR) after 5-aza-CR (5 μM, 16 h) in WT cells against 2DR cells: > 10 fold
B1: lysyl oxidase-like 4 (LOXL4), endogenous (natural protein, UniProt Q96JB6 25-756, looked up)
chain: QSLGTTKLRLVGPESKPEEGRLEVLHQGQWGTVCDDNFAIQEATVACRQLGFEAALTWAHSAKYGQGEGPIWLDNVRCVGTESSLDQCGSNGWGVSDCSHSEDVGVICHPRRHRGYLSETVSNALGPQGRRLEEVRLKPILASAKQHSPVTEGAVEVKYEGHWRQVCDQGWTMNNSRVVCGMLGFPSEVPVDSHYYRKVWDLKMRDPKSRLKSLTNKNSFWIHQVTCLGTEPHMANCQVQVAPARGKLRPACPGGMHAVVSCVAGPHFRPPKTKPQRKGSWAEEPRVRLRSGAQVGEGRVEVLMNRQWGTVCDHRWNLISASVVCRQLGFGSAREALFGARLGQGLGPIHLSEVRCRGYERTLSDCPALEGSQNGCQHENDAAVRCNVPNMGFQNQVRLAGGRIPEEGLLEVQVEVNGVPRWGSVCSENWGLTEAMVACRQLGLGFAIHAYKETWFWSGTPRAQEVVMSGVRCSGTELALQQCQRHGPVHCSHGGGRFLAGVSCMDSAPDLVMNAQLVQETAYLEDRPLSQLYCAHEENCLSKSADHMDWPYGYRRLLRFSTQIYNLGRTDFRPKTGRDSWVWHQCHRHYHSIEVFTHYDLLTLNGSKVAEGHKASFCLEDTNCPTGLQRRYACANFGEQGVTVGCWDTYRHDIDCQWVDITDVGPGNYIFQVIVNPHYEVAESDFSNNMLQCRCKYDGHRVWLHNCHTGNSYPANAELSLEQEQRLRNNLI
